Here are results for two substances from US20100105877A1.

For the assay, the target named is GLP-1 receptor on RIN-m5F rat insulinoma cells (Rat) (UniProt P32301). Kind of assay: cell-based or functional assay.

On to Ser12 DA exendin-4(Lys27)-PEG-Fc, for which the In vitro titer (%): cAMP EC50 in RIN-m5F cells, relative to exendin-4 turned out to be 2.6%. For the substance DA GLP-1(Lys20, 28)-PEG-Fc, the In vitro titer (%): cAMP EC50 in RIN-m5F cells, relative to exendin-4 stood at 2%.
